According to article PMC3924863 (Cancer research, 2013):
Changes are numbered by the printed parent chain.

B1: LJM716 (antibody, V domains shown)
VH: EVQLLESGGGLVQPGGSLRLSCAASGFTFSSYAMSWVRQAPGKGLEWVSAINSQGKSTYYADSVKGRFTISRDNSKNTLYLQMNSLRAEDTAVYYCARWGDEGFDIWGQGTLVTVSS
VL: DIQMTQSPSSLSASVGDRVTITCRASQGISNWLAWYQQKPGKAPKLLIYGASSLQSGVPSRFSGSGSGTDFTLTISSLQPEDFATYYCQQYSSFPTTFGQGTKVEIK
B2: MOR09825 Fab (Fab, V domains shown)
VH: B1 VH with E1Q, L5V
VL: B1 VL with T85V

Legend:
[1] = molecular target: Fc-tagged HER2 extracellular domain (Homo sapiens (assumed), UniProt P04626); assay: ELISA
[2] = molecular target: Fc-tagged HER4 extracellular domain (Homo sapiens (assumed), UniProt Q15303); assay: ELISA
[3] = molecular target: Fc-tagged EGFR extracellular domain (Homo sapiens (assumed), UniProt P00533); assay: ELISA
[4] = molecular target: recombinant monomeric rat HER3 extracellular domain (Rattus norvegicus, UniProt Q62799); assay: solution equilibrium titration
[5] = molecular target: T1, recombinant monomeric human HER3 extracellular domain (human, UniProt P21860); assay: solution equilibrium titration
[6] = molecular target: recombinant mouse HER3 extracellular domain (Mus musculus, UniProt Q61526); assay: solution equilibrium titration
[7] = molecular target: recombinant monomeric cynomolgus monkey HER3 extracellular domain (cynomolgus monkey); assay: solution equilibrium titration
[8] = molecular target: isolated HER3 domains D3-4 (Homo sapiens, UniProt P21860); assay: ELISA
[9] = molecular target: T1, recombinant monomeric human HER3 …; assay: ELISA

Row | Binder | binding result [1] | binding result [2] | binding result [3] | Kd [4] [nM] | Kd [5] [nM] | Kd [6] [nM] | Kd [7] [nM] | binding result [8] | binding result [9]
1 | B1 | no binding | no binding | no binding | 0.057 | 0.032 | 0.037 | 0.043 |  | 
2 | B2 |  |  |  |  |  |  |  | no binding | binds
